Results: ChEMBL document CHEMBL2074411

Substrate: NCCc1ccc(O)c(O)c1
Assay: cells, lysate or membranes named

B1: Solute carrier family 22 member 2 (Rattus norvegicus) (protein)
chain: MSTVDDILEHIGEFHLFQKQTFFLLALLSGAFTPIYVGIVFLGFTPDHHCWSPGAAKLSQRCGWSQAEELNYTVPGLGPSDEASFLSQCMRYEVDWNQSTLDCVDPLSSLAADRNQLPLGPCEHGWVYNTPGSSIVTEFNLVCAHSWMLDLFQSVVNVGFFIGAMMIGYLADRFGRKFCLLVTILINAISGALMAISPNYAWMLVFRFLQGLVSKAGWLIGYILITEFVGLGYRRMVGICYQIAFTVGLLILAGVAYVIPNWRWLQFAVTLPNFCFLLYFWCIPESPRWLISQNKIVKAMKIIKHIAKKNGKSVPVSLQNLTPDEDAGKKLNPSFLDLVRTPQIRKHTLILMYNWFTSSVLYQGLIMHMGLAGDNIYLDFFYSALVEFPAAFIIILTIDRVGRRYPWAVSNMVAGAACLASVFIPDDLQWLKITIACLGRMGITMAYEMVCLVNAELYPTYIRNLGVLVCSSMCDIGGIITPFLVYRLTDIWMEFPLVVFAVVGLVAGALVLLLPETKGKALPETIEDAENMQRPRKKKEKRIYLQVKQADRPLS
  Km: 2300 µM
